From publication PMC10397247
Values belong to the binder of their own block, whether it stands above or below them.

What was measured:
[1] = target: T1, 4H1347-bA; experiment: two-hybrid library CCNG1;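 note: natural log of median RNA to DNA barcode read ratio; higher means stronger binding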
T1 chain: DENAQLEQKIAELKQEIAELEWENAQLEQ

[2] = target: T2, 4H145-bA; experiment: two-hybrid library CCNG1;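 note: natural log of median RNA to DNA barcode read ratio; higher means stronger binding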
T2 chain: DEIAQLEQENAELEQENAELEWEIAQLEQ

[3] = target: T3, 4H2619-bA; experiment: two-hybrid library CCNG1;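 note: natural log of median RNA to DNA barcode read ratio; higher means stronger binding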
T3 chain: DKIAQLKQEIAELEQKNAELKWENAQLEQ

[4] = target: T4, 4H2691-bA; experiment: two-hybrid library CCNG1;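 note: natural log of median RNA to DNA barcode read ratio; higher means stronger binding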
T4 chain: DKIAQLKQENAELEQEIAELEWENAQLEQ

[5] = target: T5, 4H3070-bA; experiment: two-hybrid library CCNG1;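 note: natural log of median RNA to DNA barcode read ratio; higher means stronger binding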
T5 chain: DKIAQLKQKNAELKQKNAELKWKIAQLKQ

[6] = target: T6, 4H342-bA; experiment: two-hybrid library CCNG1;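 note: natural log of median RNA to DNA barcode read ratio; higher means stronger binding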
T6 chain: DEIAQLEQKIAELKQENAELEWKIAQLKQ

[7] = target: T7, 4H3632-bA; experiment: two-hybrid library CCNG1
T7 chain: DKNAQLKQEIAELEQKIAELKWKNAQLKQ

[8] = target: T8, 4H496-bA; experiment: two-hybrid library CCNG1
T8 chain: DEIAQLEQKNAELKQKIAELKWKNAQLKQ

[9] = target: T9, Core_IINI-es_KEEE; experiment: two-hybrid library CCmax; conditions: mean of both orientations
T9 chain: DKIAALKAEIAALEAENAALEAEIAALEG

[10] = target: T10, Core_NINN-es_KEKE; experiment: two-hybrid library CCmax; conditions: mean of both orientations
T10 chain: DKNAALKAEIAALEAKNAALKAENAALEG

[11] = target: T11, P4SN; experiment: two-hybrid library CCNG1; conditions: mean of both orientations
T11 chain: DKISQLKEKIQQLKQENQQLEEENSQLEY

[12] = target: T11, P4SN; experiment: two-hybrid library CCmax
[13] = target: T12, O1-bH; experiment: two-hybrid library CCNG1
T12 chain: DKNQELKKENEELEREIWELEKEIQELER

[14] = target: T13, O10-bH; experiment: two-hybrid library CCNG1
T13 chain: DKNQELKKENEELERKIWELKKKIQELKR

[15] = target: T14, O11-bH; experiment: two-hybrid library CCNG1
T14 chain: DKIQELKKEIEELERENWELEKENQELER

[16] = target: T15, O12-bH; experiment: two-hybrid library CCNG1
T15 chain: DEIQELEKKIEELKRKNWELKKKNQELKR

[17] = target: T16, O13-bH; experiment: two-hybrid library CCNG1
T16 chain: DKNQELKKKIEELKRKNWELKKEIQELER

[18] = target: T17, O14-bH; experiment: two-hybrid library CCNG1
T17 chain: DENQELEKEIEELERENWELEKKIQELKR

[19] = target: T18, O15-bH; experiment: two-hybrid library CCNG1
T18 chain: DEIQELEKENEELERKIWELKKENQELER

[20] = target: T19, O16-bH; experiment: two-hybrid library CCNG1
T19 chain: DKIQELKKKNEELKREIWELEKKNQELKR

[21] = target: T20, O2-bH; experiment: two-hybrid library CCNG1
T20 chain: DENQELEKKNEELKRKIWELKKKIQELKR

[22] = target: T21, O3-bH; experiment: two-hybrid library CCNG1
T21 chain: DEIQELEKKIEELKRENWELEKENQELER

[23] = target: T22, O4-bH; experiment: two-hybrid library CCNG1
T22 chain: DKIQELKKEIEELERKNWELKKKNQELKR

[24] = target: T23, O5-bH; experiment: two-hybrid library CCNG1
T23 chain: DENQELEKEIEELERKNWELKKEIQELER

[25] = target: T24, O6-bH; experiment: two-hybrid library CCNG1
T24 chain: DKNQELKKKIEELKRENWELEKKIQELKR

[26] = target: T25, O7-bH; experiment: two-hybrid library CCNG1
T25 chain: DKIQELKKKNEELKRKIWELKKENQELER

[27] = target: T26, O8-bH; experiment: two-hybrid library CCNG1
T26 chain: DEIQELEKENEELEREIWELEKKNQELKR

[28] = target: T27, O9-bH; experiment: two-hybrid library CCNG1
T27 chain: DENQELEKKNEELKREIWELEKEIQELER

[29] = target: T28, Core_NNNI-es_KEKE; experiment: two-hybrid library CCmax; conditions: mean of both orientations
T28 chain: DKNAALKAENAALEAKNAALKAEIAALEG

[30] = target: T29, Core_INNN-es_KKEE; experiment: two-hybrid library CCmax; conditions: mean of both orientations
T29 chain: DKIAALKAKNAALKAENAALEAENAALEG

[31] = target: T30, P10mS; experiment: two-hybrid library CCNG1
T30 chain: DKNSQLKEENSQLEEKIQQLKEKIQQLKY

[32] = target: T31, P11mS; experiment: two-hybrid library CCNG1
T31 chain: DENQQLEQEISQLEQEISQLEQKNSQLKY

[33] = target: T32, P12mS; experiment: two-hybrid library CCNG1
T32 chain: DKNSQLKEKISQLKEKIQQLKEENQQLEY

[34] = target: T33, P3mS; experiment: two-hybrid library CCNG1
T33 chain: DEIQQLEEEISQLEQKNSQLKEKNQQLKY

[35] = target: T34, P4mS; experiment: two-hybrid library CCNG1
T34 chain: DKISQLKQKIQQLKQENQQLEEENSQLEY

[36] = target: T35, P5mS; experiment: two-hybrid library CCNG1
T35 chain: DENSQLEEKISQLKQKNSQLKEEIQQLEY

[37] = target: T36, P6mS; experiment: two-hybrid library CCNG1
T36 chain: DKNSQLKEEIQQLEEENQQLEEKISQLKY

[38] = target: T37, P7mS; experiment: two-hybrid library CCNG1
T37 chain: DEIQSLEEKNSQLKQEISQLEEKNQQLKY

[39] = target: T38, P8mS; experiment: two-hybrid library CCNG1
T38 chain: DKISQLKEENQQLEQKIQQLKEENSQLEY

[40] = target: T39, P9mS; experiment: two-hybrid library CCNG1
T39 chain: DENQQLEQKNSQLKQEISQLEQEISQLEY

Binder: DENAQLEQKIAELKQEIAELEWENAQLEQ [4H1347-bA]
- interaction score [1]: -0.84
- interaction score [2]: -0.0112
- interaction score [3]: -0.421
- interaction score [4]: -0.56
- interaction score [5]: -0.786
- interaction score [6]: -0.567
- interaction score [7]: 1.92
- interaction score [8]: -0.596

Binder: DEIAALEAKIAALKAKNAALKAKIAALKG [Core_IINI-es_EKKK]
- interaction score [9]: 2.08

Binder: DEIQQLEEEISQLEQKNSELKEKNQELKY [P3SN]
- interaction score [11]: 1.25
- interaction score [12]: -0.993

Binder: DKNQELKKENEELEREIWELEKEIQELER [O1-bH]
- interaction score [13]: -0.259
- interaction score [14]: 0.782
- interaction score [15]: -0.522
- interaction score [16]: -0.434
- interaction score [17]: 0.467
- interaction score [18]: -0.549
- interaction score [19]: -0.695
- interaction score [20]: -0.655
- interaction score [21]: -0.214
- interaction score [22]: -1.49
- interaction score [23]: -1.15
- interaction score [24]: -1.92
- interaction score [25]: -0.62
- interaction score [26]: -0.877
- interaction score [27]: -2.35
- interaction score [28]: -2.31

Binder: DKNSQLKEENSQLEEKIQQLKEKIQQLKY [P10mS]
- interaction score [31]: -0.344
- interaction score [32]: 0.347
- interaction score [33]: 0.126
- interaction score [34]: -1.79
- interaction score [35]: 0.178
- interaction score [36]: -1.28
- interaction score [37]: -2.03
- interaction score [38]: 0.649
- interaction score [39]: -0.478
- interaction score [40]: -0.677

The next lines start with the values.

- interaction score [10]: 1.51
Binder: DENAALEAKIAALKAENAALEAKNAALKG [Core_NINN-es_EKEK]

- interaction score [29]: 2.1
Binder: DENAALEAKNAALKAENAALEAKIAALKG [Core_NNNI-es_EKEK]

- interaction score [30]: 1.67
Binder: DEIAALEAENAALEAKNAALKAKNAALKG [Core_INNN-es_EEKK]
